IntAct's records for PubMed 31515488

B1: Serine/threonine-protein kinase PAK 5 (Homo sapiens), Q9P286 (parent)
chain: MFGKKKKKIEISGPSNFEHRVHTGFDPQEQKFTGLPQQWHSLLADTANRPKPMVDPSCITPIQLAPMKTIVRGNKPCKETSINGLLEDFDNISVTRSNSLRKESPPTPDQGASSHGPGHAEENGFITFSQYSSESDTTADYTTEKYREKSLYGDDLDPYYRGSHAAKQNGHVMKMKHGEAYYSEVKPLKSDFARFSADYHSHLDSLSKPSEYSDLKWEYQRASSSSPLDYSFQFTPSRTAGTSGCSKESLAYSESEWGPSLDDYDRRPKSSYLNQTSPQPTMRQRSRSGSGLQEPMMPFGASAFKTHPQGHSYNSYTYPRLSEPTMCIPKVDYDRAQMVLSPPLSGSDTYPRGPAKLPQSQSKSGYSSSSHQYPSGYHKATLYHHPSLQSSSQYISTASYLSSLSLSSSTYPPPSWGSSSDQQPSRVSHEQFRAALQLVVSPGDPREYLANFIKIGEGSTGIVCIATEKHTGKQVAVKKMDLRKQQRRELLFNEVVIMRDYHHDNVVDMYSSYLVGDELWVVMEFLEGGALTDIVTHTRMNEEQIATVCLSVLRALSYLHNQGVIHRDIKSDSILLTSDGRIKLSDFGFCAQVSKEVPKRKSLVGTPYWMAPEVISRLPYGTEVDIWSLGIMVIEMIDGEPPYFNEPPLQAMRRIRDSLPPRVKDLHKVSSVLRGFLDLMLVREPSQRATAQELLGHPFLKLAGPPSCIVPLMRQYRHH
B2: Protein NOXP20 (Homo sapiens), Q8IWE2 (parent)
chain: MSDDAGDTLATGDKAEVTEMPNSDSLPEDAEVHCDSAAVSHEPTPADPRGEGHENAAVQGAGAAAIGPPVQPQDANALEPPLNGDVTEDTLAECIDSVSLEAEPRSEIPLQEQNYLAVDSPPSGGGWAGWGSWGKSLLSSASATVGHGLTAVKEKAGATLRIHGVNSGSSEGAQPNTENGVPEITDAATDQGPAESPPTSPSSASRGMLSAITNVVQNTGKSVLTGGLDALEFIGKKTMNVLAESDPGFKRTKTLMERTVSLSQMLREAKEKEKQRLAQQLTMERTAHYGMLFDEYQGLSHLEALEILSNESESKVQSFLASLDGEKLELLKNDLISIKDIFAAKELENEENQEEQGLEEKGEEFARMLTELLFELHVAATPDKLNKAMKRAHDWVEEDQTVVSVDVAKVSEEETKKEEKEEKSQDPQEDKKEEKKTKTIEEVYMSSIESLAEVTARCIEQLHKVAELILHGQEEEKPAQDQAKVLIKLTTAMCNEVASLSKKFTNSLTTVGSNKKAEVLNPMISSVLLEGCNSTTYIQDAFQLLLPVLQVSHIQTSCLKAQP
partner: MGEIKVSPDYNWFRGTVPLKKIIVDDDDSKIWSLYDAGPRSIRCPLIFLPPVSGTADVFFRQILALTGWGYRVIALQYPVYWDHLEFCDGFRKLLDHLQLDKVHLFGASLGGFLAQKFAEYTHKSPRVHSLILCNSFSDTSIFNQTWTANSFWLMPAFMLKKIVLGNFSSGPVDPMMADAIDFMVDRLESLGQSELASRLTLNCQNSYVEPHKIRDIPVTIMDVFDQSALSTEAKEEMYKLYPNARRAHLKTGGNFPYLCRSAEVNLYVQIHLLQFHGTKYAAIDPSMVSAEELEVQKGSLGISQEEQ
B3: Cyclic AMP-dependent transcription factor ATF-4 (Homo sapiens), P18848 (parent)
chain: MTEMSFLSSEVLVGDLMSPFDQSGLGAEESLGLLDDYLEVAKHFKPHGFSSDKAKAGSSEWLAVDGLVSPSNNSKEDAFSGTDWMLEKMDLKEFDLDALLGIDDLETMPDDLLTTLDDTCDLFAPLVQETNKQPPQTVNPIGHLPESLTKPDQVAPFTFLQPLPLSPGVLSSTPDHSFSLELGSEVDITEGDRKPDYTAYVAMIPQCIKEEDTPSDNDSGICMSPESYLGSPQHSPSTRGSPNRSLPSPGVLCGSARPKPYDPPGEKMVAAKVKGEKLDKKLKKMEQNKTAATRYRQKKRAEQEALTGECKELEKKNEALKERADSLAKEIQYLKDLIEEVRKARGKKRVP
partner: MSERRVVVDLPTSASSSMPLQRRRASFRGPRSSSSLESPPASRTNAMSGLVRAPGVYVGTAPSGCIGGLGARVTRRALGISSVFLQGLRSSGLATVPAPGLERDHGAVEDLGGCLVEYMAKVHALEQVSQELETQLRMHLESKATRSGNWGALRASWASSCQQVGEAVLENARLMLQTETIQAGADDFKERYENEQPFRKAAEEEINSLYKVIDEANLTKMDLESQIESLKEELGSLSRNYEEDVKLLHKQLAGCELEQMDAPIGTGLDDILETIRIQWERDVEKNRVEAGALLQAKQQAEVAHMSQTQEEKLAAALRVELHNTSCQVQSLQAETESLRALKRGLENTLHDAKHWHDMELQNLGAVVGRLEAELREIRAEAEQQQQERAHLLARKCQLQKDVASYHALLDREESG

Variants of: B1
Conditions: with uxt_human UXT

Variant	effect of a mutation on the interaction
V604I	with no effect
R335P	with no effect

Variants of: B1
Conditions: with fhl3_human FHL3, Q13643
fhl3_human FHL3, Q13643, sequence (Q13643 whole entry): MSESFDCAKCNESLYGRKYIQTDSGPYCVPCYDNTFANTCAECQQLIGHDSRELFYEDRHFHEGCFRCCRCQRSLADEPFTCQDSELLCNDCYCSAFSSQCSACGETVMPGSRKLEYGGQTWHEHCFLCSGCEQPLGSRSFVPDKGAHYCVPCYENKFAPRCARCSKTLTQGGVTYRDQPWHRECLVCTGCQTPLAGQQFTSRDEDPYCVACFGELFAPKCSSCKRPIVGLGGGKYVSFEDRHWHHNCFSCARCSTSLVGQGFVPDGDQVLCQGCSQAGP

Variant	effect of a mutation on the interaction
V604I	with no effect

Variants of: B1
Conditions: with pdli7_human PDLIM7, Q9NR12
pdli7_human PDLIM7, Q9NR12, sequence (Q9NR12 whole entry): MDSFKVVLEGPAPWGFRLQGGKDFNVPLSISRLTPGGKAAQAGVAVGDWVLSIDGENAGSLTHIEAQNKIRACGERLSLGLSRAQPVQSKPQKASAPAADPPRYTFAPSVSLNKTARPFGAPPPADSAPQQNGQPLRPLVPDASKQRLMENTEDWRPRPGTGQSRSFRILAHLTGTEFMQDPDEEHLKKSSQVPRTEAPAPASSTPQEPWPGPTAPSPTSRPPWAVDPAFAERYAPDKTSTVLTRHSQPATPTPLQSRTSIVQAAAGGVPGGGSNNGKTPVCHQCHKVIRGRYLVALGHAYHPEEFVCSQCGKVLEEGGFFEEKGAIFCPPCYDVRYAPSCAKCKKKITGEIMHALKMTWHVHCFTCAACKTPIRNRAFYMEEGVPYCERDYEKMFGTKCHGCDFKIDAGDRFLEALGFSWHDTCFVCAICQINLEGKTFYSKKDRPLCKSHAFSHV

Variant	effect of a mutation on the interaction
V604I	with no effect

Variants of: B1
Conditions: with crbn_human CRBN

Variant	effect of a mutation on the interaction
R335P	with no effect

Variants of: B1
Conditions: with gcp4_human TUBGCP4, Q9UGJ1
gcp4_human TUBGCP4, Q9UGJ1, sequence (Q9UGJ1 whole entry): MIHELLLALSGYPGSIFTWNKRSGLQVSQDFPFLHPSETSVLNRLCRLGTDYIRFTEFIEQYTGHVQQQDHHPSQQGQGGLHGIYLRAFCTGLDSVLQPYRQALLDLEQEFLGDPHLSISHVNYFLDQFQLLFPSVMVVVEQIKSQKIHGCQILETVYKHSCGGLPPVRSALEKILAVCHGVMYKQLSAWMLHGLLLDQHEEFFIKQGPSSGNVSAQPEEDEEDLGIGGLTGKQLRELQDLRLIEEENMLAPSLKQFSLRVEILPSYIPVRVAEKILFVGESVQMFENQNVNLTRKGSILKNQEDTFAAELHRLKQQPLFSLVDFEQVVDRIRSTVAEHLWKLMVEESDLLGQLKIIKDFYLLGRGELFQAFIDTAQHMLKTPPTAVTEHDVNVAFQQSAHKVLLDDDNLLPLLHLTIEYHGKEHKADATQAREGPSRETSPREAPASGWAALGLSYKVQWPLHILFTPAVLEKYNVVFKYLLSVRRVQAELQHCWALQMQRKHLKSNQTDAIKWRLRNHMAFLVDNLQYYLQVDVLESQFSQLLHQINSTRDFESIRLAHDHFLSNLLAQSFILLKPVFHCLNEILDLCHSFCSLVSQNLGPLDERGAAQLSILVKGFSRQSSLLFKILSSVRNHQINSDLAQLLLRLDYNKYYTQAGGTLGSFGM

Variant	effect of a mutation on the interaction
R335P	with no effect

Variants of: B2
Conditions: with spg21_human SPG21, Q9NZD8

Variant	effect of a mutation on the interaction
S40L	with no effect

Variants of: B3
Conditions: with bfsp2_human BFSP2, Q13515

Variant	effect of a mutation on the interaction
MTEMSFLSSEVLVGDLMSPFDQSGLGAEESLGLLDDYLEVAKHFKPHGFSSDKAKAGSSEWLAVDGLVSPSNNSKEDAFSGTDWMLEKMDLKEFDLDALLGIDDLETMPDDLLTTLDDTCDLFAPLVQETNKQPPQTVNPIGHLPESLTKPDQVAPFTFLQPLPLSPGVLSSTPDHSFSLELGSEVDITEGDRKPDYTAYVAMIPQCIKEEDTPSDNDSGICMSPESYLGSPQHSPSTRGSPNRSLPSPGVLCGSARAKPYDPPGEKMVAAKVKGEKLDKKLKKMEQNKTAATRYRQKKRAEQEALTGECKELEKKNEALKERADSLAKEIQYLKDLIEEVRKARGKKRVP [P258A]	with no effect
MTEMSFLSSEVLVGDLMSPFDQSGLGAEESLGLLDDYLEVAKHFKPHGFSSDKAKAGSSEWLAVDGLVSPSNNSKEDAFSGTDWMLEKMDLKEFDLDALLGIDDLETMPDDLLTTLDDTCDLFAPLVQETNKQPPQSVNPIGHLPESLTKPDQVAPFTFLQPLPLSPGVLSSTPDHSFSLELGSEVDITEGDRKPDYTAYVAMIPQCIKEEDTPSDNDSGICMSPESYLGSPQHSPSTRGSPNRSLPSPGVLCGSARPKPYDPPGEKMVAAKVKGEKLDKKLKKMEQNKTAATRYRQKKRAEQEALTGECKELEKKNEALKERADSLAKEIQYLKDLIEEVRKARGKKRVP [T137S]	with no effect
MTEMSFLSSEVLVGDLMSPFDQSGLGAEESLGLLDDYLEVAKHFKPHGFSSDKAKAGSSEWLAVDGLVSPSNNSKEDAFSGTDWMLEKMDLKEFDLDALLGIDDLETMPDDLLTTLDDTCDLFAPLVQETNKQPPQTVNPIGHLPESLTKPDQVAPFTFLQPLPLSPGVLSSTPDHSFSLELGSEVDITEGDRKPDYTAYVAMIPQCIKEEDTPSDNDSGICMSPESYLGSPQHSPSTRGSPNRSLPSPGVLCGSARPKPYDPPGEKMVAAKVKGEKLDKKLKKMEQNKTAATRYRQKKRAEQEALTGECKELEKKNEALKERVDSLAKEIQYLKDLIEEVRKARGKKRVP [A324V]	with no effect
MTEMSFLSSEVLVGDLMSPFDQSGLGAEESLGLLDDYLEVAKHFKPHGFSSDKAKAGSSEWLAVDGLVSPSNNSKEDAFSGTDWMLEKMDLKEFDLDALLGIDDLETMPDDLLTTLDDTCDLFAPLVQETNKQPPQTVNPIGHLPESLTKPDQVAPFTFLQPLPLSPGVLSSTPDHSFSLELGSEVDITEGDRKPDYTAYVAMIPQCIKEEDTPSDNDSGICMSPESYLGSPQHSPSTRGSPNRSLPSPGVLCGSARPKPYDPPGEKMVAAKVKGEKLDKKLKKMEQNKTAATRYRQKKRAEQEALTGECKELEKKNEALKDRADSLAKEIQYLKDLIEEVRKARGKKRVP [E322D]	disrupting interaction strength
